This is an account of results in PMC3347801.

In this assay the target is human CD81 large extracellular loop fused to glutathione S-transferase (UniProt P60033). In words: CD81 binding assay (immobilized GST-CD81 LEL capture of E1E2 from cell lysate, detection with anti-E2 serum R646). To be noted: lysate concentration normalized for reactivity with AP33 and ALP98 mAbs in a GNA ELISA; mock signal subtracted; triplicate; parent: est. 100; read off a plot. For orientation: In an ELISA, binding on a coated surface is turned into a signal by an enzyme label.
Chain of UniProt P60033 (P60033 113-201): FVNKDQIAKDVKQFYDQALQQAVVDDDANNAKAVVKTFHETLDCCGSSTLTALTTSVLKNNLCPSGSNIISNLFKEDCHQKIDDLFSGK
On to “HCV envelope glycoprotein E1, wild type (genotype 1a strain H77c) (from UniProt P27958) in218 (VFKHD inserted after D218)”, for which the percent of parent was 93 % of WT.

For “HCV envelope glycoprotein E1, wild type (genotype 1a strain H77c) (from UniProt P27958) in263 (CLNID inserted after D263)”, the percent of parent is 93 % of WT.

In the case of “HCV envelope glycoprotein E1, wild type (genotype 1a strain H77c) (from UniProt P27958) in324 (FKQMM inserted after M324)”, the percent of parent is 88 % of WT.

Consider “HCV envelope glycoprotein E1, wild type (genotype 1a strain H77c) (from UniProt P27958) in341 (LFKHP inserted after P341)”, for which the percent of parent is 100 % of WT.

On to “HCV envelope glycoprotein E1, wild type (genotype 1a strain H77c) (from UniProt P27958) in343 (CLNKA inserted after A343)”, for which the percent of parent is 66 % of WT.

Turning to “HCV envelope glycoprotein E2, wild type (genotype 1a strain H77c) (from UniProt P27958) in413 (MFKQL inserted after L413)”, the percent of parent was 72 % of WT.

With “HCV envelope glycoprotein E2, wild type (genotype 1a strain H77c) (from UniProt P27958) in422 (MFKHI inserted after I422)”, the percent of parent is 22 % of WT.

For “HCV envelope glycoprotein E2, wild type (genotype 1a strain H77c) (from UniProt P27958) in424 (CLNNS inserted after S424)”, the percent of parent was 25 % of WT.

Turning to “HCV envelope glycoprotein E2, wild type (genotype 1a strain H77c) (from UniProt P27958) in531 (MFKHA inserted after A531)”, the percent of parent was 18 % of WT.

As to “HCV envelope glycoprotein E2, wild type (genotype 1a strain H77c) (from UniProt P27958) in533 (CLNND inserted after D533)”, the percent of parent is 19 % of WT.

Regarding “HCV envelope glycoprotein E2, wild type (genotype 1a strain H77c) (from UniProt P27958) in540 (CLNIN inserted after N540)”, the percent of parent is 59 % of WT.

For “HCV envelope glycoprotein E2, wild type (genotype 1a strain H77c) (from UniProt P27958) in549 (CLNNW inserted after W549)”, the percent of parent was 45 % of WT.

As for “HCV envelope glycoprotein E2, wild type (genotype 1a strain H77c) (from UniProt P27958) in573 (CLNRG inserted after G573)”, the percent of parent is 98 % of WT.

Consider “HCV envelope glycoprotein E2, wild type (genotype 1a strain H77c) (from UniProt P27958) in587 (CLNIR inserted after R587)”, for which the percent of parent was 83 % of WT.

Take “HCV envelope glycoprotein E2, wild type (genotype 1a strain H77c) (from UniProt P27958) in611 (LFKHY inserted after Y611)”: the percent of parent is 34 % of WT.

Regarding “HCV envelope glycoprotein E2, wild type (genotype 1a strain H77c) (from UniProt P27958) in614 (LFKHR inserted after R614)”, the percent of parent is 25 % of WT.

Turning to “HCV envelope glycoprotein E2, wild type (genotype 1a strain H77c) (from UniProt P27958) in620 (CLNTC inserted after C620)”, the percent of parent was 23 % of WT.

In the case of “HCV envelope glycoprotein E2, wild type (genotype 1a strain H77c) (from UniProt P27958) in630 (CLNIR inserted after R630)”, the percent of parent was 33 % of WT.

For the substance “HCV envelope glycoprotein E2, wild type (genotype 1a strain H77c) (from UniProt P27958) in682 (LFKHL inserted after L682)”, the percent of parent is 83 % of WT.

On to “HCV envelope glycoprotein E2, wild type (genotype 1a strain H77c) (from UniProt P27958) in692 (LFKHL inserted after L692)”, for which the percent of parent was 82 % of WT.

Consider “HCV envelope glycoprotein E2, wild type (genotype 1a strain H77c) (from UniProt P27958) in726 (FKHLL inserted after L726)”, for which the percent of parent is 72 % of WT.

On to “HCV envelope glycoprotein E2, wild type (genotype 1a strain H77c) (from UniProt P27958) in732 (CLNIC inserted after C732)”, for which the percent of parent is 77 % of WT.

For the substance “HCV envelope glycoprotein E2, wild type (genotype 1a strain H77c) (from UniProt P27958) in734 (CLNTC inserted after C734)”, the percent of parent is 96 % of WT.
